From patent US20170226193A1 (UNIVERSITY OF MASSACHUSETTS, published 2017) come the findings set out here.

Some results are limits rather than exact numbers.

In assay [1] the target is T1, native OspA on Borrelia afzelii BO23 spirochetes (Borrelia afzelii BO23, UniProt P0A3N7 17-273).
T1 sequence: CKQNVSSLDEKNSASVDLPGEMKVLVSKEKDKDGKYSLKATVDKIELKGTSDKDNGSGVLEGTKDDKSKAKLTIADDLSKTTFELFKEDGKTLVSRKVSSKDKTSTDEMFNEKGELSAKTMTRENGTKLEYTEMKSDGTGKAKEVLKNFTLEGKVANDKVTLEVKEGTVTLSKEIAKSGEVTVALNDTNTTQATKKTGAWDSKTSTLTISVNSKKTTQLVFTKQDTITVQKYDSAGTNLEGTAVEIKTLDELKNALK
The assay is described as follows: cell-based or functional assay.

In assay [2] the target is native OspA on Borrelia burgdorferi B31 spirochetes (Borrelia burgdorferi B31, UniProt P0CL66 17-273). Description: cell-based or functional assay.
The next assay addresses T2, a.a.18-141.
T2 construct: not shown: N-terminal His tag and vector-derived linker of pET45-His
T2 chain: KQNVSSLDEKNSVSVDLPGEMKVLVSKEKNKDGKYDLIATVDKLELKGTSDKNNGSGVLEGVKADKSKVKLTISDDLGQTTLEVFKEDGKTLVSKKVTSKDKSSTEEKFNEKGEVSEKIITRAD
Description: ELISA on plate-coated OspA protein form [panel B]. A general note: ELISA stands for enzyme-linked immunosorbent assay.

The target in a further assay is T3, a.a. 18-177.
T3 construct: not shown: N-terminal His tag and vector-derived linker of pET45-His
T3 chain: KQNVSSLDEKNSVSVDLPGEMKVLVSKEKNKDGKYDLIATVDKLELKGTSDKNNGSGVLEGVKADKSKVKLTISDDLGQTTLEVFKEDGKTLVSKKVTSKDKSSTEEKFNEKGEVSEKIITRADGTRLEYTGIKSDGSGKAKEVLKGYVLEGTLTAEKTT
Description: ELISA on plate-coated OspA protein form [panel B].

In another assay the target is T4, a.a. 71-273.
T4 construct: not shown: N-terminal His tag and vector-derived linker of pET45-His
T4 chain: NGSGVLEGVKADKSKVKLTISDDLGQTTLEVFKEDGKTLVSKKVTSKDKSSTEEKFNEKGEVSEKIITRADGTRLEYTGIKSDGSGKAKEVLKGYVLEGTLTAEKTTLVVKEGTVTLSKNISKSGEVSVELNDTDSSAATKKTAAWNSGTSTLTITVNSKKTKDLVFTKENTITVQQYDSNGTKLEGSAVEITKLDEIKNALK
The assay is described as follows: ELISA on plate-coated OspA protein form [panel B].

The next assay addresses T5, a.a. 106-273.
T5 construct: not shown: N-terminal His tag and vector-derived linker of pET45-His
T5 chain: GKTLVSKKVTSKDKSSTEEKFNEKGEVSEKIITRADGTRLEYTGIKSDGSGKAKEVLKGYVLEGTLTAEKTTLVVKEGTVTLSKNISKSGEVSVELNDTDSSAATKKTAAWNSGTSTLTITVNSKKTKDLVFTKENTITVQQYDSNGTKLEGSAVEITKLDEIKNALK
Description: ELISA on plate-coated OspA protein form [panel B].

The target in the next assay is T6, a.a. 142-273.
T6 construct: not shown: N-terminal His tag and vector-derived linker of pET45-His
T6 chain: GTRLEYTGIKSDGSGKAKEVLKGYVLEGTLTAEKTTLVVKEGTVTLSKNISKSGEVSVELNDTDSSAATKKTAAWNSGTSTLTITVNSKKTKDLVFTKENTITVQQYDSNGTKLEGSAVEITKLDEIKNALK
Description: ELISA on plate-coated OspA protein form [panel B].

Another assay addresses T7, a.a. 178-273.
T7 construct: not shown: N-terminal His tag and vector-derived linker of pET45-His
T7 chain: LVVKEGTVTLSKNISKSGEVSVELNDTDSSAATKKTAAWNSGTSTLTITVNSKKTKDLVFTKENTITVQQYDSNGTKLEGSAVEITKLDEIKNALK
The assay is described as follows: ELISA on plate-coated OspA protein form [panel B].

The target of assay [3] is T8, OspA (a.a. 18-273) mutant with D249A and S250A point mutations, N-terminal His tag (Borrelia burgdorferi, UniProt P0CL66 18-273).
T8 construct: not shown: N-terminal His tag of the pET45 vector
The assay is described as follows: ELISA on plate-coated OspA protein form [panel B].

Assay [4] concerns the target T9, recombinant OspA of Borrelia burgdorferi B31 (OspA-burgdorferi) (Borrelia burgdorferi B31, UniProt P0CL66 17-273).
T9 construct: also called OspA B. burgdorferi; not shown: N-terminal GST tag (pGEX-4T-3) or His tag (pET45-His)
The assay is described as follows: SPR, Biacore 3000; antibody amine-coupled on CM5 chip, OspA in solution. On the technique in general: Surface plasmon resonance follows binding to a sensor surface in real time, without labels.

Assay [5] addresses T10, recombinant OspA of Borrelia afzelii ACA-1 (OspA-afzelii) (Borrelia afzelii ACA-1, UniProt P0A3N7 17-273).
T10 construct: also called OspA B. afzelii; not shown: N-terminal GST tag (pGEX-4T-3) or His tag (pET45-His)
T10 sequence: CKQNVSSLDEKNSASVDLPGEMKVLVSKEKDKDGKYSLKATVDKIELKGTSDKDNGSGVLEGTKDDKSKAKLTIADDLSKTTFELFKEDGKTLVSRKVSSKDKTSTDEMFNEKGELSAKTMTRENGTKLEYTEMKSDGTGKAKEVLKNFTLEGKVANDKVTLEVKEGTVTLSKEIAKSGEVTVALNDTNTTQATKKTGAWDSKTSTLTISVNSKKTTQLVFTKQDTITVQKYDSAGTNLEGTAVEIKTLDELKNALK
The description is as above.

The target of assay [6] is T11, recombinant OspA of Borrelia garinii PBi (OspA-garinii) (Borrelia garinii PBi, UniProt Q09089 17-273).
T11 construct: also called OspA B. garinii; not shown: N-terminal GST tag (pGEX-4T-3) or His tag (pET45-His)
T11 sequence (Q09089 17-273 limits assumed): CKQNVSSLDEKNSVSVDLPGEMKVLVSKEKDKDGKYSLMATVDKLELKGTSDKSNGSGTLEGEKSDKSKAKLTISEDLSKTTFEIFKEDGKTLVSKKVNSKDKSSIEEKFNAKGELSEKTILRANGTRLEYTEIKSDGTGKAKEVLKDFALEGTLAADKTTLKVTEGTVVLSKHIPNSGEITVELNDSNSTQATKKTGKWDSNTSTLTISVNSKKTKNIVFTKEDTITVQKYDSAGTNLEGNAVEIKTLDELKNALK
Described as above.

The target of assay [7] is T9, recombinant OspA of Borrelia …. Description: SPR, Biacore 3000.
Assay [8] concerns the target T10, recombinant OspA of Borrelia afzelii …. Description: SPR, Biacore 3000.
Assay [9] addresses T11, recombinant OspA of Borrelia garinii …. Description: SPR, Biacore 3000.
Assay [10] has as its target native OspA on Borrelia garinii PBi spirochetes (Borrelia garinii PBi, UniProt Q09089 17-273). Description: cell-based or functional assay.

Sequence of native OspA on Borrelia garinii PBi spirochetes (Q09089 17-273 limits assumed): as above

B1: anti-OspA antibody 319-44 (antibody, V domains shown)
VH: EMQLVQSGAEVKKPGESLKISCKGSGYIFATYWIGWVRQMPGKGLEWMGIIYPNDSDTRYSPSFQGQVTISADKSINTAYLQWSSLKASDTAMYYCARTRWYFDLWGRGTLVTVSS
VL: not shown
notes: also called HuMab 319-44; 319-44 wild-type antibody
In the case of B1, the “Borreliacidal activity (EC50 (nM))” value is 4 nM in assay [1] and < 0.4 nM in assay [2]. In addition, the binding result in the assay with a.a.18-141 is “no binding”; with a.a. 18-177, “no binding”; with a.a. 71-273, “binds”; with a.a. 106-273, “binds”; with a.a. 142-273 it was “binds”; with a.a. 178-273, “binds”. In addition, in [3], the binding result is “no binding”. For the same molecule, the Kd (in general, the concentration at which binding is half-saturated) was 328 nM in assay [4], 1200 nM in assay [5] and 674 nM in assay [6].

B2: anti-OspA antibody 212-55 (antibody, V domains shown)
VH: EVQLVESGGGLVQPGGSLRLSCAASGFTFRNYWMDWVRQAPGKGLEWVANIKQDGSVKYYVDSVEGRFTISRDNAKNSLFLQMNSLRAEDTAVYYCARDGYSGYDSVGFDIWGQGTMVTVSS
VL: EIVLTQSPGTLSLSPGERATLSCRASQSVSSSYLAWYQQKPGQAPRLLISDTSSRATGIPDRFSGSGSGTDFTLTISRLEPEDFAVYYCQQYGSSPYTFGQGTKLEIK
notes: also called HuMab 212-55
B2: the binding result in the assay with a.a. 142-273 is reported as “binds”; in the assay with a.a. 178-273, “no binding”. Moreover, the Kd in assay [6] is 480 nM.

B3: anti-OspA antibody 221-7 (antibody, V domains shown)
VH: EVQLVQSGSEVKKPGESLKISCQVSGYSFTSYWIGWVRQMPGKGLERVGFIYPGDSDTRYSPSFQGQVTISADKSISTAYLQWSSLKASDTAMYYCARGILRYFDWFLDYWGQGTLVTVSS
VL: AIQLTQSPSSLSASVGDRVTITCRASQGISSGSAWYQQKPGKAPKLLIYDVSSLESGVPSRFSGSGSGTEFTLTISSLQPEDFATYYCQQFNSYLLTFGGGTKVEIK
notes: also called HuMab 221-7
B3: the equilibrium dissociation constant (Kd) is ≤ 22 nM in assay [7]; ≤ 36 nM in assay [8]; ≤ 36 nM in assay [9]; 0.66 nM in assay [4]; 7.8 nM in [5]; 1.3 nM in [6]. In addition, the results for the “Borreliacidal activity (EC50 (nM))” value in [1], in assay [10] and in assay [2] were 0.9 nM, 6.6 nM and < 0.4 nM, respectively. In addition, the binding result with a.a.18-141 is “binds”; with a.a. 18-177 it was “binds”; with a.a. 71-273 it was “binds”; with a.a. 106-273 it was “no binding”; with a.a. 142-273, “no binding”; in the assay with a.a. 178-273 it was “no binding”. Further, the binding result in assay [3] is on record as “binds”.

B4: anti-OspA antibody 857-2 (antibody, V domains shown)
VH: EVQLVQSGEEVKKPGESLKISCKGSGYKFSSYWIGWVRQMPGKGLEWMGIIFPGDSDKRYSPSFQGQVTISADKSISTVYLQWSSLKASDTAMYYCARHITTHTYRGFFDFWGQGTLVTVSS
VL: AIQLTQSPSSLSASVGDRVTITCRASQDISSALAWYQQKPGKAPKLLIYDVSSLESGVPSRFSGSGSGTDFTLTISSLQPEDFATYYCQQFNGYPHRLTFGGGTKVEIK
notes: also called HuMab 857-2
Turning to B4, the Kd in assay [7] was ≤ 22 nM; in assay [8], ≤ 36 nM; in assay [9], ≤ 36 nM; in assay [4], 0.65 nM; in [5] it was 1.6 nM; in assay [6] it was 1 nM. In addition, the “Borreliacidal activity (EC50 (nM))” value in assay [1] stood at 2 nM; in [10], 41.6 nM; in assay [2], 2 nM. The binding result in the assay with a.a.18-141 is reported as “binds”; in the assay with a.a. 18-177, “binds”; with a.a. 71-273, “binds”; with a.a. 106-273, “binds”; with a.a. 142-273, “no binding”; with a.a. 178-273, “no binding”. Moreover, the binding result in assay [3] is reported as “binds”.
